According to article PMC2572860:

Target: apoMb samples (RNCs bearing apoMb nascent polypeptides of increasing length)
Assay: co-sedimentation

Chain of DnaK (P0A6Y8 whole entry): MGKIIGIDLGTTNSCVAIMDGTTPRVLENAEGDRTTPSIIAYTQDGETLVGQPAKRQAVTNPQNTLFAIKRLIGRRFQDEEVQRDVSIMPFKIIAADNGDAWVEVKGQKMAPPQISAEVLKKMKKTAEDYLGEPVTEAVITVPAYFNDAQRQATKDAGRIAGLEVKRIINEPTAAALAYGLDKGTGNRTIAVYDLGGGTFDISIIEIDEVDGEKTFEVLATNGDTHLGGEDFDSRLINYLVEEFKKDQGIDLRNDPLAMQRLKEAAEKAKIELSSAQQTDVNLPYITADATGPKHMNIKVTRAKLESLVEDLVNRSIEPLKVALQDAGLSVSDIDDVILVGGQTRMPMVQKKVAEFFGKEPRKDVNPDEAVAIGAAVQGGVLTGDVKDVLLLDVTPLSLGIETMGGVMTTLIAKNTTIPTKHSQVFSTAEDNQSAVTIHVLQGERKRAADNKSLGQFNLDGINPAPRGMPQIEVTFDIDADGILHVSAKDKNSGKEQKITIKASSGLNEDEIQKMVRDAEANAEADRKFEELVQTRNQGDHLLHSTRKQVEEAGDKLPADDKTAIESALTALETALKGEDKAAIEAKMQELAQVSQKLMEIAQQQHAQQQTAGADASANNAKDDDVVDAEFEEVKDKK

- DnaK concentration in the resuspended RNC pellet: 20 to 65 nM
Substance: DnaK (from UniProt P0A6Y8 1-638) (natural protein)
